Laboratory results reported in US20190119389A1 (POTENZA THERAPEUTICS, published 2019).
Numbering of substitutions follows the chain as printed. In names and notes the source's numbering stands. Blank lines part the entries; values can stand above or below the binder they belong to.

Legend:
[1] = target: T1, Recombinant human NRP-1-Fc fusion protein, a1a2b1b2 domains (human, UniProt O14786 22-583, limits assumed); assay: BLI Octet QKe, antibody on AHC sensor, NRP-1-Fc fragment 500 nM
T1 construct: Only the named domains of hNRP-1 are in the construct; not shown: Fc

[2] = target: T2, Recombinant human NRP-1-Fc fusion protein, a1a2b1 domains (human, UniProt O14786 22-424, limits assumed); assay: as above
T2 construct: Only the named domains of hNRP-1 are in the construct; not shown: Fc

[3] = target: T3, Recombinant human NRP-1-Fc fusion protein, a2b1b2 domains (human, UniProt O14786 147-583, limits assumed); assay: as above
T3 construct: Only the named domains of hNRP-1 are in the construct; not shown: Fc

[4] = target: T4, Mouse NRP-1 His (mouse, UniProt P97333 22-856); assay: BLI Octet QKe, IgG4 S228P on AHC sensor, multi-concentration monomeric antigen, global 1:1 fit
T4 construct: Recombinant monomeric protein; also called mNRP-1; not shown: His tag

[5] = target: T5, Human NRP-1 His (human, UniProt O14786 22-856); assay: as above
T5 construct: Recombinant monomeric protein; Biotinylated in the MSD-SET assay; also called hNRP-1; not shown: His tag

[6] = target: T6, Cyno NRP-1 His (cynomolgus monkey, UniProt O14786 22-856 (human entry), limits assumed); assay: as above
T6 construct: Recombinant monomeric protein; also called cynomolgus monkey NRP-1-His; cNRP-1; not shown: His tag
T6 chain: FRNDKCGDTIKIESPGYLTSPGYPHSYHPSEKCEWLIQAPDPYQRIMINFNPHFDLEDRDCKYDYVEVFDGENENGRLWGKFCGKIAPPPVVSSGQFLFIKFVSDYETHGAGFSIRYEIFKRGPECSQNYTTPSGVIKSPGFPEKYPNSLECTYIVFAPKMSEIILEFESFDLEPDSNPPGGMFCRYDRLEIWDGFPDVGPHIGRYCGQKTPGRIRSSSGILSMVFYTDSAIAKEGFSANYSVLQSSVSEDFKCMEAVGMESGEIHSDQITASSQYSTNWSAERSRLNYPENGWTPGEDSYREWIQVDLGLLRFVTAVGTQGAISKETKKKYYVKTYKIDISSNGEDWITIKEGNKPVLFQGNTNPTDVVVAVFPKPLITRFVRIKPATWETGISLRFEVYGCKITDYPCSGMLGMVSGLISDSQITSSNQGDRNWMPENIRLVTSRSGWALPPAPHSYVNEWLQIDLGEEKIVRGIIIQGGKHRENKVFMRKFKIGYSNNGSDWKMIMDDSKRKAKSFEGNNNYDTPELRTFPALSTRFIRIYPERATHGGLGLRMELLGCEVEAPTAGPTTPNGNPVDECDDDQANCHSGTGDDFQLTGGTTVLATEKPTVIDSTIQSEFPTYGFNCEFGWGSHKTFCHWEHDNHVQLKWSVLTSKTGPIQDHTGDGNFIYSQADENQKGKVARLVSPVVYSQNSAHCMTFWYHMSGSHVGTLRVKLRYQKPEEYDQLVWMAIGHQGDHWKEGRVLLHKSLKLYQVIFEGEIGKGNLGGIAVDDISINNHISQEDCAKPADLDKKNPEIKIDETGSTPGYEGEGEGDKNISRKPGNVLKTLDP

[7] = target: T7, recombinant human NRP-1 (human, UniProt O14786 22-856, limits assumed); assay: blocking ELISA, average of n=2: SEMA3A coated, biotinylated human NRP-1 preincubated with IgG4 antibody; competitor SEMA3A
T7 construct: also called biotinylated human NRP-1
Target sequence in this assay (O14786 22-856 V179A limits assumed): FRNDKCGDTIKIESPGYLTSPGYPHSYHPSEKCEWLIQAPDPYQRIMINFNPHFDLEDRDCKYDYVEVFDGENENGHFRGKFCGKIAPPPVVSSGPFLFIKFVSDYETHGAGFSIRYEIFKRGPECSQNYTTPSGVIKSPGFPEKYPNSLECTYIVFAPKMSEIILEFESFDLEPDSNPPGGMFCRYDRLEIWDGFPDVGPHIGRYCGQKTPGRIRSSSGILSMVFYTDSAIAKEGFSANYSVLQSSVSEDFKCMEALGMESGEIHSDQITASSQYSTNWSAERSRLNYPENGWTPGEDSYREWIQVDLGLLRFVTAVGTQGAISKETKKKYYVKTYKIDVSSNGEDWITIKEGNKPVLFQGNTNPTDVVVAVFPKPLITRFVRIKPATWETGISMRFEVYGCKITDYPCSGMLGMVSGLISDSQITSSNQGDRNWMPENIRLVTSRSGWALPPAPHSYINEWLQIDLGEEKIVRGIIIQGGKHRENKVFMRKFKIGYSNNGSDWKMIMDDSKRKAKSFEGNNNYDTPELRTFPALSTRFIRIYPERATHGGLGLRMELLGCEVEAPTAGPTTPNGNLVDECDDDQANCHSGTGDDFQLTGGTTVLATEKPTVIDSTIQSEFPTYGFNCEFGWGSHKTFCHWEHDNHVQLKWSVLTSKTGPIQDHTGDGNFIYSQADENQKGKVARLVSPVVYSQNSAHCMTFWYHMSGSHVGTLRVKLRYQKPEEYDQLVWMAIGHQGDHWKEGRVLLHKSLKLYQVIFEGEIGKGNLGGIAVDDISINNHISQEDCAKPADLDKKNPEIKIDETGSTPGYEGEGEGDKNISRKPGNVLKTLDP

[8] = target: T7, recombinant human NRP-1; assay: blocking ELISA, average of n=2: human NRP-1 coated, VEGFA added with IgG4 antibody; competitor VEGFA
[9] = target: T7, recombinant human NRP-1; assay: blocking ELISA: SEMA3A coated, biotinylated human NRP-1 preincubated with IgG1 antibody; competitor SEMA3A
Target sequence in this assay (O14786 22-856 V179A limits assumed): as above

[10] = target: T8, monomeric mutant NRP1 b1 Y353A (human, UniProt O14786 273-427, limits assumed); assay: BLI Octet, MAB12 captured on anti-human Fc sensors, monomeric mutant NRP1 b1
T8 construct: Single point mutant of the human NRP1 b1 domain
T8 chain: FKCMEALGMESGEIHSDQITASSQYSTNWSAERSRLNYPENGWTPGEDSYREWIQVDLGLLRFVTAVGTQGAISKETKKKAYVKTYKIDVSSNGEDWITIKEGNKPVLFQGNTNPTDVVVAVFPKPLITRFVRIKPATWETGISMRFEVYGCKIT

[11] = target: T9, monomeric mutant NRP1 b1 E412H (human, UniProt O14786 273-427, limits assumed); assay: as above
T9 construct: Single point mutant of the human NRP1 b1 domain
T9 chain: T8 chain with A81Y, E140H

[12] = target: T10, monomeric mutant NRP1 b1 P317A (human, UniProt O14786 273-427, limits assumed); assay: as above
T10 construct: Single point mutant of the human NRP1 b1 domain
T10 chain: T8 chain with P45A, A81Y

[13] = target: T11, monomeric mutant NRP1 b1 Y354A (human, UniProt O14786 273-427, limits assumed); assay: as above
T11 construct: Single point mutant of the human NRP1 b1 domain
T11 chain: T8 chain with A81Y, Y82A

[14] = target: T12, monomeric mutant NRP1 b1 T349A (human, UniProt O14786 273-427, limits assumed); assay: as above
T12 construct: Single point mutant of the human NRP1 b1 domain
T12 chain: T8 chain with T77A, A81Y

[15] = target: T13, monomeric mutant NRP1 b1 K352G (human, UniProt O14786 273-427, limits assumed); assay: as above
T13 construct: Single point mutant of the human NRP1 b1 domain
T13 chain: T8 chain with K80G, A81Y

[16] = target: T14, monomeric mutant NRP1 b1 T413A (human, UniProt O14786 273-427); assay: as above
T14 chain: T8 chain with A81Y, T141A

[17] = target: T15, monomeric mutant NRP1 b1 D320A (human, UniProt O14786 273-427, limits assumed); assay: as above
T15 construct: Single point mutant of the human NRP1 b1 domain
T15 chain: T8 chain with D48A, A81Y

[18] = target: T16, monomeric mutant NRP1 b1 K351N (human, UniProt O14786 273-427, limits assumed); assay: as above
T16 construct: Single point mutant of the human NRP1 b1 domain
T16 chain: T8 chain with K79N, A81Y

[19] = target: T4, Mouse NRP-1 His; assay: BLI ForteBio, IgG1 N297A on AHQ sensor, 100 nM monomeric antigen, 1:1 fit
[20] = target: T5, Human NRP-1 His; assay: as above
[21] = target: T6, Cyno NRP-1 His; assay: as above
[22] = target: T7, recombinant human NRP-1; assay: blocking ELISA: human NRP-1 coated, VEGFA added with IgG1 antibody; competitor VEGFA
Target sequence in this assay (O14786 22-856 V179A limits assumed): as the sequence (O14786 22-856 V179A limits assumed) above

T4 sequence (P97333 22-856 limits assumed): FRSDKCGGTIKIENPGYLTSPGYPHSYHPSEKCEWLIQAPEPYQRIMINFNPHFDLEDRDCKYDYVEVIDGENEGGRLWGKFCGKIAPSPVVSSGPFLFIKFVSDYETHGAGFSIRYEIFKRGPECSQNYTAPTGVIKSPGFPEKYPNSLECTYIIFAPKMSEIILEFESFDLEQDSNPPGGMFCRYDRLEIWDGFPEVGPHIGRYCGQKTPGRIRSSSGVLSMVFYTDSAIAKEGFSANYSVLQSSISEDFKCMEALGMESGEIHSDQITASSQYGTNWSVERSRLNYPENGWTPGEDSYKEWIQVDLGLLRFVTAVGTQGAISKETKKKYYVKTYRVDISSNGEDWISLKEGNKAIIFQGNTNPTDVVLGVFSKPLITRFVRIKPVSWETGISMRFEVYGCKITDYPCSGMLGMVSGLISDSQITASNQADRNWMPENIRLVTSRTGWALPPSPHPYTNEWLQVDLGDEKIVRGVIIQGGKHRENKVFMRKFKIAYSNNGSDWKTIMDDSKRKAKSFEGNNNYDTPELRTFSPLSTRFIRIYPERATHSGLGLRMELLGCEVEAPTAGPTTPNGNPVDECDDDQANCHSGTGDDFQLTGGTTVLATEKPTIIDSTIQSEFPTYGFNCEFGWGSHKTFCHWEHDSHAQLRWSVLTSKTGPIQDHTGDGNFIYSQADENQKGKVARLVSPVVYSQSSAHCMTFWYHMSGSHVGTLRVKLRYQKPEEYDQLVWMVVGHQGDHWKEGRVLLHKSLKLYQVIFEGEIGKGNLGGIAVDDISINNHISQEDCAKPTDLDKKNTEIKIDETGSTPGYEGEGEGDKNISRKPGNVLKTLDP
T5 sequence (O14786 22-856 V179A limits assumed): as the sequence (O14786 22-856 V179A limits assumed) above
T3 sequence (O14786 147-583 V179A limits assumed): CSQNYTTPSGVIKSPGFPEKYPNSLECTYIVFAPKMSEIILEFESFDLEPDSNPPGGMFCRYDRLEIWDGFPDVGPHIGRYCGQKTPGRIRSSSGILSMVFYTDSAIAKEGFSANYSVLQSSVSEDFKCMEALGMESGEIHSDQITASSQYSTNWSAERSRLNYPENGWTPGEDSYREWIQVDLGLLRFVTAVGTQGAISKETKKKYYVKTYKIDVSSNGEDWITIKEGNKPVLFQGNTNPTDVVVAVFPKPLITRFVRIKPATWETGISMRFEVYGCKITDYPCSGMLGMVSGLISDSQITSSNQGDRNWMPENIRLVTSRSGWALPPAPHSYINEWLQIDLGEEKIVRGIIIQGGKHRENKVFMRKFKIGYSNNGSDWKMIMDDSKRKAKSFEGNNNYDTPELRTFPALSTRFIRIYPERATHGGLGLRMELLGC

binding result [1]: binds | binding result [2]: binds
B1: SEC3 (antibody, human IgG1, kappa, V domains shown)
VH: EVQLVESGGGLVQPGGSLRLSCAASGFTISGYGIHWVRQAPGKGLEWVAYIYPDSGYTDYADSVKGRFTISADTSKNTAYLQMNSLRAEDTAVYYCAREDFRNRRRLWYVMDYWGQGTLVTVSS
VL: DIQMTQSPSSLSASVGDRVTITCRASQDVSTAVAWYQQKPGKAPKLLIYSASFLYSGVPSRFSGSGSGTDFTLTISSLQPEDFATYYCQQAWAYLPTFGQGTKVEIKR
notes: Appendix A gives 144 as light chain and 145 as heavy chain; also called pan-anti-NRP-1 antibody

binding result [1]: binds | binding result [3]: binds
B2: anti-NRP Antibody SEC10 (antibody, human IgG1, kappa, V domains shown)
VH: EVQLVESGGGLVQPGGSLRLSCAASGFTFSSYAMSWVRQAPGKGLEWVSQISPAGGYTNYADSVKGRFTISADTSKNTAYLQMNSLRAEDTAVYYCARGELPYYRMSKVMDVWGQGTLVTVSS
VL: DIQMTQSPSSLSASVGDRVTITCRASQYFSSYLAWYQQKPGKAPKLLIYGASSRASGVPSRFSGSGSGTDFTLTISSLQPEDFATYYCQQYLGSPPTFGQGTKVEIKR

Kd [4]: 3.7 nM | Kd [5]: 0.96 nM | Kd [6]: 0.94 nM | IC50 [7]: 0.9 nM | IC50 [8]: 2.9 nM
B3: MAB13 IgG4 S228P (antibody, V domains shown)
VH: QVQLQQWGAGLLKPSETLSLTCAVYGGSFRGYYWEWIRQPPGKGLEWIGEISHSGSTNYNPSLKSRVTISVDTSKNQFSLKLSSVTAADTAVYYCARARPYREPYGMDVWGQGTTVTVSS
VL: DIQLTQSPSSVSASVGDRVTITCRASQDISSWLAWYQQKPGKAPKLLIYAASSLQSGVPSRFSGSGSGTDFTLTISSLQPEDFATYYCQQELAFPRTFGGGTKVEIKR

Kd [4]: 2.7 nM | Kd [5]: 0.87 nM | Kd [6]: 0.74 nM | IC50 [7]: 0.6 nM | IC50 [8]: 2.5 nM
B4: MAB14 IgG4 S228P (antibody, V domains shown)
VH: B3 VH with I37S, S84P
VL: B3 VL

IC50 [9]: 0.8 nM | binding result [10]: binds | binding result [11]: no binding | binding result [12]: binds | binding result [13]: binds | binding result [14]: binds | binding result [15]: binds | binding result [16]: binds | binding result [17]: binds | binding result [18]: no binding | Kd [19]: 0.44 nM | Kd [20]: 0.481 nM | Kd [21]: 0.469 nM | IC50 [22]: 6 nM
B5: MAB12 (antibody, V domains shown)
VH: EVQLLESGGGLVQPGGSLRLSCAASGFTFSSVAMVWVRQAPGKGLEWVSAISGSGGATYYADSVEGRFTISRDNSKNTLYLQMNSLRAEDTAVYYCAKDPGYDSSRYYYSNYGMDVWGQGTTVTVSS
VL: DIQMTQSPSSLSASVGDRVTITCRASQSISSYLNWYQQKPGKAPKLLIYGASSLQSGVPSRFSGSGSGTDFTLTISSLQPEDFATYYCQQTYSLYTFGGGTKVEIK
